Format in all cases: cell-based, human
Test [1] relates to H9 hESCs. The experiment in a line: Localized mesendoderm differentiation of hPSCs on adsorbed BMP4 patterns (BRACHYURY immunostaining, day 2). The settings on record: for mesendoderm differentiation (BRA expression): two days in mTeSR1. As for the experimental part:
[…] For glass surfaces, 1.5 ng/μl BMP4 solution was used. 5 ng/μl noggin solution was placed as a droplet to show an inhibitory effect of noggin on BMP4-induced mesendoderm differentiation. After washing, substrate was coated with Matrigel® for 2 hours as described above. Glass was coated with Matrigel® overnight. 0.025 mg/ml Synthemax (Corning, 3535) (final concentration, diluted in water) was added to a washed TC-treated plate and the plate was incubated for 2 hours at room temperature prior to cell seeding. 5 μg/ml truncated recombinant human vitronectin (Gibco, A14700) diluted in PBS was added to a washed TC-treated plate and the plate was incubated for 1 hour at room temperature prior to cell seeding. After ECM coating, the ECM solution was aspirated and hPSCs were singularized using Accutase (10 min incubation at 37° C.), resuspended in mTeSR1 supplemented with 5 μM Y-27632, and seeded at 5×10^5 to about 1×10^6 cells/cm^2 on coated substrates (day 0). On the next day (day 1), medium was changed with fresh mTeSR1. […]
For immunostaining of other protein markers, cells were fixed in 4% paraformaldehyde (Electron Microscopy Sciences, 15710-S) in PBS for 15 min at room temperature, washed with PBS three times, and incubated in diluted primary antibodies in 5% nonfat dry milk (Santa Cruz Biotechnology, sc-2324)/0.4% Triton X-100 (Fisher Scientific, BP151-500) PBS overnight at 4° C. […] After secondary antibody staining, the cells were washed with PBS three times, incubated in 2 μg/ml Hoechst 33342 diluted in PBS for 5 min at room temperature, washed with PBS two times, and analyzed under the fluorescence microscope. […]
Next, BMP4 solution was placed on TC-treated plates in various patterns (droplet, letters, circle, heart, and star), and hPSCs seeded onto the substrate in mTeSR1 maintenance medium. […] Since the presence of inhibitory morphogens is also important in developmental patterning, a BMP inhibitor, noggin, was evaluated for antagonism to localized BMP4-induced mesendoderm differentiation. […]

The test system of test [2] is H9 hESCs. The experiment in a line: Localized cardiomyocyte differentiation on BMP4 patterns (cTnT immunostaining, day 8). The note with it: 2.5 ng/μl BMP4 pattern, 5 μM IWP2 at day 3, day 8. On the procedure:
For localized cardiomyocyte (CM) differentiation, 2.5 ng/μl BMP4 solution was placed in PDMS stencil masks on a TC-treated plate. Matrigel® coating and hPSC seeding was performed as described above. At day 1 and day 2, medium was changed with fresh RPMI B27−. Afterwards, CM differentiation was performed based on the GiWi protocol (Lian et al. (2013) Nature protocols 8, 162-175). At day 3, cells were treated with 5 μM IWP2 in fresh RPMI B27−. At day 5, medium was changed with fresh RPMI B27−. At day 7, medium was changed with fresh RPMI B27+. At day 8, a beating phenotype of patterned CM derived from H9-hTNNT2-GFP hESC was recorded using a fluorescence microscope (Nikon, Eclipse Ti2-E) equipped with a heating stage top incubator (Tokai Hit, Tokai Hit STX Series Stage Top Incubator System). Cells were also immunostained for analysis at day 8.
Based on the results showing localized mesoderm differentiation on BMP-patterned substrates, mesodermal cells were examined to see if they could be further differentiated on these patterns into cardiomyocytes, a specialized mesodermal cell type. BMP4 patterns were used to direct mesoderm and Wnt inhibition by addition of IWP2 to the culture medium at day 3 to specify cardiac mesoderm and achieve patterned CM differentiation (FIG. 4A). The H9-hTNNT2-GFP hESC reporter line was used to visualize patterning of CMs in live cells. […]

Test [3] deals with H9 hESC-derived cardiac progenitor cells (CPCs). The experiment in a line: Localized EpiC differentiation of hPSC-derived cardiac progenitors on morphogen droplets (WT1 immunostaining). The note with it: droplets on TC-coated PS plate, 7d after cardiac progenitor seeding. As for the experimental part:
For localized EpiC differentiation, BMP4 (2 ng/μl)+Wnt3a (40 ng/μl) solution was placed in PDMS stencil masks either on a TC-treated plate or an ibidi 35 mm polymer dish. Matrigel® coating was performed as described above. Cryopreserved CPCs were thawed and seeded at 500,000-550,000 cells/cm^2 in LaSR medium (advanced DMEM/F12 (Gibco, 12634-010) supplemented with 60 μg/ml ascorbic acid (Sigma, A8960) and 2.5 mM Glutamax (Gibco, 35050-061)) supplemented with 5 μM Y-27632). Medium was changed daily with fresh LaSR medium until analysis. Time lapse imaging of CPCs derived from H9-hTNNT2-GFP hESC during localized EpiC differentiation was performed using a fluorescence microscope equipped with a heating stage top incubator. 18 days after CPC seeding, cells cultured on an ibidi polymer dish were immunostained and imaged using a confocal microscope (Nikon, A1R-SI+) for the analysis of sarcomere structure.
Spatial organization of cell fate commitment is important throughout development. […] These cardiac progenitors can further differentiate into CMs without any specific external signaling factors and can also differentiate into EpiCs upon activation of canonical Wnt signaling (Bao et al. (2016) Nature biomed. Eng. 1, 1-12).

B1: BMP4: human recombinant BMP4 (Invitrogen, PHC9534), morphogen adsorbed on the substrate (protein, UniProt P12644 293-408, looked up)
Bone morphogenetic protein 4: SPKHHSQRARKKNKNCRRHSLYVDFSDVGWNDWIVAPPGYQAFYCHGDCPFPLADHLNSTNHAIVQTLVNSVNSSIPKACCVPTELSAISMLYLDEYDKVVLKNYQEMVVEGCGCR
For the molecule B1, the “mesendoderm differentiation (BRA expression)” value in the test with H9 hESCs [1] (BMP4 droplets adsorbed on TC-treated PS, Matrigel coating) was “induced localized mesendoderm differentiation”; in the test with H9 hESCs [1] (BMP4 droplets adsorbed on untreated PS surface), “none of the BMP4 droplets induced mesendoderm differentiation”. Besides, the “cell attachment on the patterned area” value in the test on H9 hESCs [1] (untreated PS surface, 0.1, 0.2, and 2.5 ng/ul BMP4 droplets) is “partially or fully inhibited cell attachment”. Moreover, in the test on H9 hESCs [2], the “cardiomyocyte differentiation (cTnT)” value is “localization of CMs to the patterned area”. For the same molecule, the “EpiC differentiation (WT1 expression)” value in test [3] was “limited if any EpiC differentiation”.

The record behind these values is patent US20230002728A1, “STEM CELL FATE ENGINEERING METHODS” (Wisconsin Alumni Research Foundation, priority 2021, published 2023).
